Experiment in all cases: SPR (BIAcore T200), RSPO3 immobilized, antibody injected, 25 C, 1:1 Langmuir
One experiment deals with T1, cynomolgus RSPO3 (cynomolgus, UniProt A0A2K5UTQ7 22-273).
T1 construct: also called cyno RSPO3
T1 sequence: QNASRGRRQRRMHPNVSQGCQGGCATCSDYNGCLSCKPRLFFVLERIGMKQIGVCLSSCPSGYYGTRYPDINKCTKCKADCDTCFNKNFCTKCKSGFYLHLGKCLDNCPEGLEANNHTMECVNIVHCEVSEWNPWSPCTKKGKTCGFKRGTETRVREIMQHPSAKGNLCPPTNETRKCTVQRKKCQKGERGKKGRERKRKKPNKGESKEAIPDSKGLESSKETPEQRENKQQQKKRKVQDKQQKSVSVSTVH

Experiment [1] has as its target T2, murine RSPO3 (R&D Systems Cat. No. 4120-RS/CF) (murine, UniProt Q2TJ95 22-277, limits assumed).
T2 construct: also called mouse RSPO3
T2 sequence (looked up): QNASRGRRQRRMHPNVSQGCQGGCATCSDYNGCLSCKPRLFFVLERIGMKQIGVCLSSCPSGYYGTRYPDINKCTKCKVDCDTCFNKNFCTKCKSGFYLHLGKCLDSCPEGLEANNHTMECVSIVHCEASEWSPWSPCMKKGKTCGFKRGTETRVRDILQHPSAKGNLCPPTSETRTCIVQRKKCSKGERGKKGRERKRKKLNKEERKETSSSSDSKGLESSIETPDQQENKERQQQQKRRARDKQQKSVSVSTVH

A further experiment deals with T3, human RSPO3 (human, UniProt Q9BXY4 22-272).
T3 construct: Recombinant human RSPO3 protein (Genentech); also called huRSPO3; hRSPO3
T3 sequence: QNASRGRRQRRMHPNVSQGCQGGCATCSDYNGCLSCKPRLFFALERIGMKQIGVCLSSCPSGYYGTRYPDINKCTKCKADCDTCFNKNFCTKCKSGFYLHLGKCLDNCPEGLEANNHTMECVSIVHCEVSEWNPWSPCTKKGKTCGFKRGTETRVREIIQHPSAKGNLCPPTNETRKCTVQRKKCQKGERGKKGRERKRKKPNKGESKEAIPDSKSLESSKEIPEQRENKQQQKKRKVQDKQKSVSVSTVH

B1: hu4A6.L4H2 (antibody, V domains shown)
VH: EVQLVESGGGVVQPGRSLRLSCAASGFTFSDYDMAWVRQAPGKGLEWVATIIYDGSRTYYRDSVKGRFTISRDNSKNTLYLQMNSLRAEDTAVYYCAAHDRSFDYWGQGTMVTVSS
VL: DIQMTQSPSSLSASVGDRVTITCLASEDISNDLVWYQQKPGKAPKLLIYAASRLQDGVPSRFSGSGFGTDFTLTISSLQPEDFATYYCQQSYKYLPTFGQGTKLEIK
notes: CDR graft only (L4, H2); also called humanized 4A6
In the experiment with cynomolgus RSPO3, B1 displayed a Kd of 0.247 nM, a koff of 5.95e-05 s⁻¹ and a kon of 241000 M⁻¹ s⁻¹. In experiment [1], this molecule yielded a Kd of 0.441 nM, a koff of 8.08e-05 s⁻¹ and a kon of 183000 M⁻¹ s⁻¹. In the experiment with human RSPO3, this molecule displayed a Kd of 0.434 nM, a koff of 8.47e-05 s⁻¹ and a kon of 195000 M⁻¹ s⁻¹.

B2: hu11C10.L5H1 (antibody, V domains shown)
VH: EVQLVESGGGVVQPGRSLRLSCAASGFTFSDYDMAWVRQAPGKGLEWVATIIYDGSRTYYRDSVKGRFTISRDNSKNTLYLQMNSLRAEDTAVYYCATHDKTFDYWGQGTMVTVSS
VL: DIQLTQSPSSLSASVGDRVTITCRASEDIYSDLAWYQQKPGKAPKLLIYDVNSLIHGVPSRFSGSGSGTDFTLTISSLQPEDFATYYCQQYDNYPNTFGQGTKLEIK
notes: CDR graft light chain L5 with H1; also called humanized 11C10
B2: the dissociation constant (Kd) in the experiment with cynomolgus RSPO3 came out at 1.75 nM; in experiment [1], 3.22 nM; in the experiment with human RSPO3, 3.01 nM. Further, the koff turned out to be 0.00121 s⁻¹ with cynomolgus RSPO3, 0.00138 s⁻¹ in experiment [1] and 0.00145 s⁻¹ with human RSPO3. Also, the kon with cynomolgus RSPO3 came to 695000 M⁻¹ s⁻¹; in experiment [1] it was 429000 M⁻¹ s⁻¹; with human RSPO3 it was 480000 M⁻¹ s⁻¹.

B3: hu15F3.L4H2 (antibody, V domains shown)
VH: EVQLVESGGGVVQPGRSLRLSCAASGFTFSDYDMAWVRQAPGKGLEWVATIIYDGSRAYFGDSVRGRFTISRDNSKNTLYLQMNSLRAEDTAVYYCTAHDRSFDYWGQGTMVTVSS
VL: DIQMTQSPSSLSASVGDRVTITCLVSEDISNDFVWYQQKPGKAPKLLIYAASRLQDGVPSRFSGSGSGTDFTLTISSLQPEDFATYYCQQSYKYPPTFGQGTKLEIK
notes: CDR graft only (L4, H2); also called humanized 15F3
For the molecule B3, the dissociation constant (Kd) in the experiment with cynomolgus RSPO3 amounted to 0.466 nM; in experiment [1] it was 0.775 nM; with human RSPO3, 0.839 nM. The dissociation rate constant (koff) with cynomolgus RSPO3 came to 0.000116 s⁻¹; in experiment [1] it was 0.000147 s⁻¹; with human RSPO3 it was 0.000164 s⁻¹. Besides, the values for the kon (in the experiment with cynomolgus RSPO3; in experiment [1]; with human RSPO3) were 248000 M⁻¹ s⁻¹, 190000 M⁻¹ s⁻¹ and 196000 M⁻¹ s⁻¹, respectively.

B4: anti-RSPO3 antibody 5D6 (WO2015/058132) (antibody, V domains shown)
VH: EVQLQESGPSLVKPSQTLSLTCSVTGDSITSGYWNWIRKFPGNKFEYMGYISYSGKTYQNPSLKSRISITRDTSKNQYHLQLNSVTTEDTATYYCATYYGYGGPWFAYWGQGTLVTVSA
VL: DIVLTQSPSSMYASLGERVTITCKASQDIDSYLSWFQQKPGKSPKTLIYLTNRLVDGVPSRFSGSGSGQDYSLTISSLEYEDMGIYYCLHYDEFPLTFGAGTKLEIK
In the experiment with cynomolgus RSPO3, B4 had a Kd of 0.697 nM, a koff of 0.000321 s⁻¹ and a kon of 461000 M⁻¹ s⁻¹. In experiment [1], this molecule came in with a Kd of 0.913 nM, a koff of 0.000326 s⁻¹ and a kon of 357000 M⁻¹ s⁻¹. In the experiment with human RSPO3, the Kd worked out at 0.485 nM, the koff stood at 0.000127 s⁻¹ and the kon amounted to 261000 M⁻¹ s⁻¹.

B5: chimeric 4A6 (antibody, V domains shown)
VH: EVQLVESGGGSVQPGRSLKVSCAASGFTFSDYDMAWVRQAPKKGLEWVATIIYDGSRTYYRDSVKGRFTLSRDNTKSTLCLQMDSLRSEDTATYYCAAHDRSFDYWGQGIMVTVSS
VL: DIQMTQSPASLSASLGETVSIECLASEDISNDLVWYQQKSGKSPQLLIYAASRLQDGVPSRFSGSGFGTRFSLKISGMQPEDEADYFCQQSYKYLPTFGAGTKLGLK
notes: Chimeric counterpart of hu4A6 with the rat 4A6 variable domains
In the experiment with cynomolgus RSPO3, B5 had a Kd of 0.174 nM, a koff of 3.36e-05 s⁻¹ and a kon of 194000 M⁻¹ s⁻¹. Besides, in experiment [1], the Kd worked out at 0.337 nM, the koff came to 5.22e-05 s⁻¹ and the kon worked out at 155000 M⁻¹ s⁻¹. In the experiment with human RSPO3, this molecule displayed a Kd of 0.363 nM, an off-rate (koff) of 5.85e-05 s⁻¹ and an on-rate constant (kon) of 161000 M⁻¹ s⁻¹.

B6: chimeric 15F3 (antibody, V domains shown)
VH: EVQLVESGGGLVQPGRSLKLSCAASGFTFSDYDMAWVRQAPKKGLEWVATIIYDGSRAYFGDSVRGRFTVSRDNTKSTLYLQMDSLRSEDTATYYCTAHDRSFDYWGQGVMVTVSS
VL: DIQMTQSPASLSASLGETVSIECLVSEDISNDFVWYQQKSGKSPQLLIYAASRLQDGVPSRFSGSGSGTRFSLRISGMQPEDEAEYFCQQSYKYPPTFGAGTKLELK
notes: Chimeric counterpart with the rat 15F3 variable domains
On to B6, for which, in the experiment with cynomolgus RSPO3, binding was put at a Kd of 0.576 nM, the off-rate (koff) stood at 0.000121 s⁻¹ and the kon is 210000 M⁻¹ s⁻¹. In experiment [1], the affinity, expressed as Kd, was 0.926 nM; the koff was 0.000156 s⁻¹; the kon is 169000 M⁻¹ s⁻¹. In the experiment with human RSPO3, this molecule came in with a Kd of 0.845 nM, a koff of 0.000151 s⁻¹ and a kon of 179000 M⁻¹ s⁻¹.

B7: chimeric 11C10 (antibody, V domains shown)
VH: EVQLVESGGGLVQPGRSLKLSCAASGFTFSDYDMAWVRQAPKKGLEWVATIIYDGSRTYYRDSVKGRFTISRANAKSTLYLQMDSLRSEDTATYYCATHDKTFDYWGQGVMVTVSS
VL: DIQMTQSPASLSASLGETVTIECRASEDIYSDLAWYQQKPGNSPQLLIYDVNSLIHGVPSRFSGSGSGTQFSLKINNLQSEDVASYFCQQYDNYPNTFGAGTKLELK
notes: Chimeric counterpart with the rat 11C10 variable domains
As for B7, in the experiment with cynomolgus RSPO3, binding was characterised by a dissociation constant (Kd) of 1.52 nM, the dissociation rate constant (koff) was 0.000963 s⁻¹ and the on-rate constant (kon) amounted to 633000 M⁻¹ s⁻¹. In experiment [1], this molecule showed a Kd of 2.76 nM, a koff of 0.00107 s⁻¹ and a kon of 388000 M⁻¹ s⁻¹. In the experiment with human RSPO3, the affinity, expressed as Kd, was 2.67 nM; the koff was determined as 0.00113 s⁻¹; the kon came to 425000 M⁻¹ s⁻¹.

The values are drawn from patent publication US20170319688A1 (Genentech, published 2017).
